Data on 35 variants can be found in the Human Domainome abundance scans (Beltran et al. 2025).

± gives the uncertainty stated by the source.

Sequences and labels used below:
B1: Zinc finger MYM-type protein 6, residues 427 to 504; numbered along this chain, O95789 (parent)
chain: KLKCQHCNHLFATKPELLFYKGKMFLFCGKNCSDEYKKKNKVVAMCDYCKLQKIIKETVRFSGVDKPFCSEVCKFLSA

The variants in the data set derive from B1. The experiment in a line: abundance fitness (aPCA) (normalised: wild type 0, dead -1); higher = more abundant; growth selection in yeast, the domain comes from the species named. Conditions: Homo sapiens.
For the variant KLKCQHCNHLFATKPELLFYKGKIFLFCGKNCSDEYKKKNKVVAMCDYCKLQKIIKETVRFSGVDKPFCSEVCKFLSA [M24I], the abundance fitness amounted to 0.19 ± 0.38. Regarding KLKCQHCNHLFATKPELLFYKGKEFLFCGKNCSDEYKKKNKVVAMCDYCKLQKIIKETVRFSGVDKPFCSEVCKFLSA [M24E], the abundance fitness was determined as 0.111 ± 0.036. For the variant KLKCQHCNHLFATKPELLFYKGKQFLFCGKNCSDEYKKKNKVVAMCDYCKLQKIIKETVRFSGVDKPFCSEVCKFLSA [M24Q], the abundance fitness came to 0.101 ± 0.039.

With KLKCQHCNHLFATKPELLFYKGKDFLFCGKNCSDEYKKKNKVVAMCDYCKLQKIIKETVRFSGVDKPFCSEVCKFLSA [M24D], the abundance fitness was determined as 0 ± 0.061.

For KLKCQHCNHLFATKPELLFYKGKLFLFCGKNCSDEYKKKNKVVAMCDYCKLQKIIKETVRFSGVDKPFCSEVCKFLSA [M24L], the abundance fitness is -0.109 ± 0.045. The figure for KLKCQHCNHLFATKPELLFYKGKAFLFCGKNCSDEYKKKNKVVAMCDYCKLQKIIKETVRFSGVDKPFCSEVCKFLSA [M24A] is -0.083 ± 0.039. KLKCQHCNHLFATKPELLFYKGKSFLFCGKNCSDEYKKKNKVVAMCDYCKLQKIIKETVRFSGVDKPFCSEVCKFLSA [M24S]: the abundance fitness was 0.012 ± 0.048. As to KLKCQHCNHLFATKPELLFYKGKYFLFCGKNCSDEYKKKNKVVAMCDYCKLQKIIKETVRFSGVDKPFCSEVCKFLSA [M24Y], the abundance fitness was -0.249 ± 0.093.

Take KLKCQHCNHLFATKPELLFYKGKRFLFCGKNCSDEYKKKNKVVAMCDYCKLQKIIKETVRFSGVDKPFCSEVCKFLSA [M24R]: the abundance fitness came out at 0.13 ± 0.029. Take KLKCQHCNHLFATKPELLFYKGKPFLFCGKNCSDEYKKKNKVVAMCDYCKLQKIIKETVRFSGVDKPFCSEVCKFLSA [M24P]: the abundance fitness amounted to 0.034 ± 0.041. Take KLKCQHCNHLFATKPELLFYKGKVFLFCGKNCSDEYKKKNKVVAMCDYCKLQKIIKETVRFSGVDKPFCSEVCKFLSA [M24V]: the abundance fitness was -0.172 ± 0.044.

With KLKCQHCNHLFATKPELLFYKGKMFDFCGKNCSDEYKKKNKVVAMCDYCKLQKIIKETVRFSGVDKPFCSEVCKFLSA [L26D], the abundance fitness is -0.066 ± 0.056. The value for KLKCQHCNHLFATKPELLFYKGKMFKFCGKNCSDEYKKKNKVVAMCDYCKLQKIIKETVRFSGVDKPFCSEVCKFLSA [L26K] was 0.09 ± 0.04; that for KLKCQHCNHLFATKPELLFYKGKMFFFCGKNCSDEYKKKNKVVAMCDYCKLQKIIKETVRFSGVDKPFCSEVCKFLSA [L26F] was -0.148 ± 0.11. As to KLKCQHCNHLFATKPELLFYKGKMFAFCGKNCSDEYKKKNKVVAMCDYCKLQKIIKETVRFSGVDKPFCSEVCKFLSA [L26A], the abundance fitness is 0.05 ± 0.028. As for KLKCQHCNHLFATKPELLFYKGKMFGFCGKNCSDEYKKKNKVVAMCDYCKLQKIIKETVRFSGVDKPFCSEVCKFLSA [L26G], the abundance fitness amounted to 0.125 ± 0.029.

Consider KLKCQHCNHLFATKPELLFYKGKMFMFCGKNCSDEYKKKNKVVAMCDYCKLQKIIKETVRFSGVDKPFCSEVCKFLSA [L26M], for which the abundance fitness is -0.015 ± 0.056. The value for KLKCQHCNHLFATKPELLFYKGKMFEFCGKNCSDEYKKKNKVVAMCDYCKLQKIIKETVRFSGVDKPFCSEVCKFLSA [L26E] was 0.118 ± 0.038; that for KLKCQHCNHLFATKPELLFYKGKMFCFCGKNCSDEYKKKNKVVAMCDYCKLQKIIKETVRFSGVDKPFCSEVCKFLSA [L26C] was 0.004 ± 0.071; that for KLKCQHCNHLFATKPELLFYKGCMFLFCGKNCSDEYKKKNKVVAMCDYCKLQKIIKETVRFSGVDKPFCSEVCKFLSA [K23C] was -0.172 ± 0.065. In the case of KLKCQHCNHLFATKPELLFYKGWMFLFCGKNCSDEYKKKNKVVAMCDYCKLQKIIKETVRFSGVDKPFCSEVCKFLSA [K23W], the abundance fitness was -0.419 ± 0.044. The value for KLKCQHCNHLFATKPELLFYKGEMFLFCGKNCSDEYKKKNKVVAMCDYCKLQKIIKETVRFSGVDKPFCSEVCKFLSA [K23E] was 0.062 ± 0.042; that for KLKCQHCNHLFATKPELLFYKGMMFLFCGKNCSDEYKKKNKVVAMCDYCKLQKIIKETVRFSGVDKPFCSEVCKFLSA [K23M] was -0.041 ± 0.058; that for KLKCQHCNHLFATKPELLFYKGTMFLFCGKNCSDEYKKKNKVVAMCDYCKLQKIIKETVRFSGVDKPFCSEVCKFLSA [K23T] was -0.036 ± 0.076. Turning to KLKCQHCNHLFATKPELLFYKGGMFLFCGKNCSDEYKKKNKVVAMCDYCKLQKIIKETVRFSGVDKPFCSEVCKFLSA [K23G], the abundance fitness is -0.067 ± 0.029. The value for KLKCQHCNHLFATKPELLFYKGNMFLFCGKNCSDEYKKKNKVVAMCDYCKLQKIIKETVRFSGVDKPFCSEVCKFLSA [K23N] was -0.001 ± 0.096. KLKCQHCNHLFATKPELLFYKGQMFLFCGKNCSDEYKKKNKVVAMCDYCKLQKIIKETVRFSGVDKPFCSEVCKFLSA [K23Q]: the abundance fitness was -0.097 ± 0.047.

For the variant KLKCQHCNHLFATKPELLFYKGSMFLFCGKNCSDEYKKKNKVVAMCDYCKLQKIIKETVRFSGVDKPFCSEVCKFLSA [K23S], the abundance fitness is -0.058 ± 0.039.

Turning to KLKCQHCNHLFATKPELLFYKGVMFLFCGKNCSDEYKKKNKVVAMCDYCKLQKIIKETVRFSGVDKPFCSEVCKFLSA [K23V], the abundance fitness was -0.091 ± 0.036. Regarding KLKCQHCNHLFATKPELLFYKGIMFLFCGKNCSDEYKKKNKVVAMCDYCKLQKIIKETVRFSGVDKPFCSEVCKFLSA [K23I], the abundance fitness was -0.129 ± 0.067. Consider KLKCQHCNHLFATKPELLFYKGFMFLFCGKNCSDEYKKKNKVVAMCDYCKLQKIIKETVRFSGVDKPFCSEVCKFLSA [K23F], for which the abundance fitness is -0.15 ± 0.1. KLKCQHCNHLFATKPELLFYKGLMFLFCGKNCSDEYKKKNKVVAMCDYCKLQKIIKETVRFSGVDKPFCSEVCKFLSA [K23L]: the abundance fitness is -0.067 ± 0.045.

In the case of KLKCQHCNHLFATKPELLFYKGDMFLFCGKNCSDEYKKKNKVVAMCDYCKLQKIIKETVRFSGVDKPFCSEVCKFLSA [K23D], the abundance fitness was -0.09 ± 0.064. As to KLKCQHCNHLFATKPELLFYKGAMFLFCGKNCSDEYKKKNKVVAMCDYCKLQKIIKETVRFSGVDKPFCSEVCKFLSA [K23A], the abundance fitness is -0.045 ± 0.032. With KLKCQHCNHLFATKPELLFYKGHMFLFCGKNCSDEYKKKNKVVAMCDYCKLQKIIKETVRFSGVDKPFCSEVCKFLSA [K23H], the abundance fitness is -0.048 ± 0.039.
